# Target: HCoV-229E spike (S) protein, S2 subunit fusion core (HR1/HR2) (human coronavirus 229E, UniProt P15423)
# Test: cell-based or functional assay
binder,measurement,value
SLTQINTTLLDLTYEMLSLQQVVKALNESYIDLKEL [peptide #1 (Peptide 1 (WT))],"IC50 (plaque reduction test, Vero E6 cells)",8.5 µg/mL

# — patent US11707504B1 (KING FAISAL UNIVERSITY, dated 2023)
